B1: Type VI secretion system spike protein VgrG3 (Vibrio cholerae), Q9KN42 (parent)
chain: MARLQFQLKVDGLEDESLVVRGFEGQESLSDSVWRCEPCYGFRYQVDLASALSNLTAEQFVDQTAHLTILRDGQVVQQINGIVRQLSKGDTGHRHTFYSLTLVPALERLSLRSNSRIFQQQSVPEIISILLQEMGIEDYAFALKRECAQREFCVQYRETDLQFLHRIAAEEGLVYSHLHEAQKHTLLFTDSSDSQPKLAKPVPYNALAGGEINLPYVVDLQFKTTAQVSHTELKDYSFKKPAYGFTQRTQGKDIAYQQPNYEHFDAPGRYKDDANGKAFSQIRLEYLRRDALLADAKSDEPLLLAGVRFDLQDHLDHAMNRDWLVVQANHQGTQPQALQEEGGSGATTYSNQLKLIPAHITWRARPCAKPQVDGPMIATVVGPQGEEIYCDNFGRVKVHFPWDRYSSSNEKSSCWVRVAQEWAGSQYGSMAIPRVGHEVIVSFLNGDPDQPIITGRTYHATNTAPYALPDHKTKTVLRTETHQGQGYNELSFEDQAGSEQILLHAQKDWDALIEHDHTEVIRHDQHLTVDNDRFTRIQRNQHLTVEGEVRSKIALDSSHEVGASLQHKVGQRIAVEAGKEISLKSGAKIVVEAGAELTLKAGGSFVKVDAGGVHLVGPAINLNAGGSAGSGSAYGGQLAAAPRMLAQAKPVAELVQPDIAASMQSGAARVIDVASLPTMMPSSANNTANDEPVAEEKTPERILKSDLLKPSDELEKLAKRQASAYRQGNHSDEVKLLQEALIKLGFDLGKAGADGDFGSKTKTAIEQFQKSYQPSHQTHPSYSIGAVDGIVGKGTLLALDEALMDGWVYENNIYQIWPLGKTSEKYESAGRGPGVISTGNGDYGGASYGCYQMSSNLGVVQKYIQSSKFKEFFSGLNPATKEFNVVWQDIASRYPQEFREEQHQFIKRTHYDIQIGHLRGKGLLFEHNRAAVHDLIWSTSVQFGGRTNLIFNALNGQNMESMTDKDIIILVQDYKLVNTERLFKSSPSWWSDLKKRAVSEKKALLELEIDGLEVDIK
partner: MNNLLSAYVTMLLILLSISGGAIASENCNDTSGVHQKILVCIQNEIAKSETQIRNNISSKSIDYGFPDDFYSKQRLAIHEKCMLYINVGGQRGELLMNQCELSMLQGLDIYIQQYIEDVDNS

The variants in one experiment derive from B1. The settings on record: with tsiv3_vibch tsiV3, Q9KN41.
Consider D842A, for which the “effect of a mutation on the interaction” value is given as “decreasing interaction”.

The variants in another experiment derive from B1. The settings on record: with tsiv3_vibch tsiV3, Q9KN41. The source holds these as a separate data set.
R996A: the “effect of a mutation on the interaction” value is recorded as “decreasing interaction”.

A further experiment covers variants of B1. The settings on record: with tsiv3_vibch tsiV3, Q9KN41. The source holds these as a separate data set.
As to Y826A, the “effect of a mutation on the interaction” value was “decreasing interaction”.

A further experiment covers variants of B1. The settings on record: with tsiv3_vibch tsiV3, Q9KN41. The source holds these as a separate data set.
Consider Q942A, for which the “effect of a mutation on the interaction” value is on record as “decreasing interaction”.

Variants of B1 are the subject of the next experiment. The settings on record: with tsiv3_vibch tsiV3, Q9KN41. This is another data set of the same source.
Turning to V941A, the “effect of a mutation on the interaction” value is “decreasing interaction”.

Variants of B1 are the subject of the next experiment. The settings on record: with tsiv3_vibch tsiV3, Q9KN41. This is another data set of the same source.
Consider L982A, for which the “effect of a mutation on the interaction” value was “decreasing interaction”.

(Values after IntAct's records for PubMed 24751834.)
